{"source": "the DeepSol protein solubility set"}
{"assay": "soluble on expression in E. coli; label from the status in PepcDB or PDB records"}
{"sequence": "MSLTTMKEIAEQTGVSISTVSLVLNGRDEGRVNPALAKLVRNKATELGYKINPLARSLRTNKTRILGFISEEVATTPYAGGIILGAQDAASAYGYMLFTVSTDGKASEENEIATLKRYGVDGFFYSKMSNRIAHVPESLSDYPVVMVDATDYENKVPSVEPDEFMIGYDATIRLLQADCKRIAYVGCAENMIAQDGRLAGYCTALQEAGRAFNPSLVCNVMNDGPALRAVNKLFDDEHPDGFFCFNDARAWYVYECAARRGLTVGKDISVVGVDNHRVFAETLEPQLTTVELPHYEMGYWSACKLISMIEGKDVDTSEGHHHHHH", "soluble on expression in E. coli": "not soluble"}
{"sequence": "MIGAILAGGYGKRLKPITDSIPKALVEIKDNYTIMDRQLFDFSIMGIEAVYILSGYLGNKIEERYGSRYRDMNIYYLREEKPLGTLYSLRNLIDEVKDDDIVLRNGDTVTDVNFLNFLKKAQDQKYYITMYVTRMKSPFGIVETFGDQIVQFREKPELNHYINAGLYYIKSDAFPYFFEKYIDRDLETTVFPRMAREGLIGSYTEEAMWIGIDSEKDLERIRADYRNREDYPWGYLKVLYDDDRSRLLEYAIKAGSDTEIDCGDGCILRIQSGLGTFGDSSDEKFRNGDVRSISGKVRVNAFENTRLELIISKKLEHHHHHH", "soluble on expression in E. coli": "soluble"}
{"sequence": "MGSDKIHHHHHHLPNLQEIFKKDNFIAWDDKVYPSILNFGAPLPKPLPRIAPNNAPLARLFIEFLYYYSMFNFKENYIGARPVMVMDRRTSQNNMVRSSTNKEVCIQDPFDEHNPGRTVRTLNRIKDVMRSTYQKFLPVEGSEFTFPTLDDIINMSPEVPKPSRAEVRNFRAEATEVNRVGLGVYCRNSFV", "soluble on expression in E. coli": "not soluble"}
{"sequence": "MNRTAMRASQKDFENSMNQVKLLKKDPGNEVKLKLYALYKQATEGPCNMPKPGVFDLINKAKWDAWNALGSLPKEAARQNYVDLVSSLSPSLESSSQVEPGTD", "soluble on expression in E. coli": "soluble"}
{"sequence": "MEGLSMDQVVIFKQIFDKVRNDLNYQWFYSELKRHNVSHYIYYLATENVHIVLKNDNTVLLKGLKNIVSVKFSKDRHLIETTSNKLKSREITFQEYRRNLAKAGVFRWVTNIHEQKRYYYTFDNSLLFTESIQKTTQILPRLEHHHHHH", "soluble on expression in E. coli": "soluble"}
{"sequence": "MLPKYEQIKQDLLREIKNHTFIPGDKFYSEADIKRKYAVSSITAVKALNELTSAGYLYRIQGKGTFVSKSKVSQNVKFSDIELHSLDSEKVKVLSIEEDNQAEILKELGLPANASYYRIKRVRYSEDTPFLVHITHLPKKLVKEPLSKDLTAYASVYERVRKDFSVDLFSLASVETNEIVFPEDAELLNLLQLSFREPAVKQVKHSYLADGSVAEYIISYKHWKYFKTKIEVEAE", "soluble on expression in E. coli": "not soluble"}
{"sequence": "MKALLLLVLPWLSPANYIDNVGNLHFLYSELCKGASHYGLTKDRKRRSQDGCPDGCASLTATAPSPEVSAAATISLMTDEPGLDNPAYVSSAEDGQPAISPVDSGRSNRTRARPFERSTIRSRSFKKINRALSVLRRTKSGSAVANHADQGRENSENTTAPEVFPRLYHLIPDGEITSIKINRVDPSESLSIRLVGGSETPLVHIIIQHIYRDGVIARDGRLLPGDIILKVNGMDISNVPHNYAVRLLRQPCQVLWLTVMREQKFRSRNNGQAPDAYRPRDDSFHVILNKSSPEEQLGIKLVRKVDEPGVFIFNVLDGGVAYRHGQLEENDRVLAINGHDLRYGSPESAAHLIQASERRVHLVVSRQVRQRSPDIFQEAGWNSNGSWSPGPGERSNTPKPLHPTITCHEKVVNIQKDPGESLGMTVAGGASHREWDLPIYVISVEPGGVISRDGRIKTGDILLNVDGVELTEVSRSEAVALLKRTSSSIVLKALEVKEYEPQEDCSSPAALDSNHNMAPPSDWSPSWVMWLELPRCLYNCKDIVLRRNTAGSLGFCIVGGYEEYNGNKPFFIKSIVEGTPAYNDGRIRCGDILLAVNGRSTSGMIHACLARLLKELKGRITLTIVSWPGTFL", "soluble on expression in E. coli": "soluble"}
{"sequence": "MGSDKIHHHHHHMLMKSSTEQIRRQNSALVLAALRVEQAMSHTQIAAVTGLASATVTAITSELEQAGVIERHEQQIAGARGRPRVALSRRRDFAYVMSVRISSDRLNYTLSDFRGKLMDRFEEPRPLDVSAAGFIEGLGRNLARLASRSKLEPEKVAVLSVSSKGIVDAGGARLLWTPVFGQQPLDLKAALGDFEKAMALLSNETLLVAHGLSRRMDAQDGTFRGLIALSLGHSIGLGIARPMPDGTVAVSAPNFGHMLNTADSKLCRCGARGCIEASAGFYGILRMAFEVRPDTIPAKFVPITEMDKIALSARQGNRMAQYAFRQAGLALGQGLSRVFSLHETLPVTITGPGTRYYDLLAQGLEEGLAQSLQVRLDGAPPISLVGDEADLVQEGHVDHALRAIDERLFGGG", "soluble on expression in E. coli": "not soluble"}
{"sequence": "MGSDKIHHHHHHMSASSQSPKGDGLLQTISVKILKRVGKEEVAYVYLGETSRGNLVEFVESIQPPVPREKKWVLIVSTLAGCPVGCLMCDAGGFYRGKLSADEIFEQIDFLVKSRYPNGRIPSEKFKIQFARMGEPALNEAVLDVLKELPARYEAPGLMPSISTVAPCGTDSFFEDLLKIKEKHYRGKFQLQFSIHSTDEKERDQIIPVKKWSLEKISEFGKRFVKENDRKITLNFAVAQEYSLDPKVIIRVFDPEKFLVKITPVNPTYRSKENNLNSDVDVERKELLKHRNFIEELKKAGFEVILSIGELEENKIGSNCGQYVQRHLMSERKIVDGYQYV", "soluble on expression in E. coli": "not soluble"}
{"sequence": "MGSDKIHHHHHHMAFRGWKKLPIRIETGEMVEAIAPVIVSASRATDIPAFHAEWFMTRLRAGYVQWCNPFNARQTQYVSFRKTRAVIFWSKNPAPLLPHLSELDAIGINYSFQFTLNDYEAEGLEPYVLPLAKRIETFRRLASHIGPERVVWRFDPLVLTGRLTADMLLERIGRLAEALGGQTRKLVISFADIECYRAVRLRLSRMGAGAREFAPEEMDEFAARLVERNKDWGLELSACAEDSELAGIAKSRCIDGHVLASCFGDDAELMEFLGGSTLFPGDAPVSVALKHQGQRKACGCIVSKDIGVYGTCQHGCRYCYACR", "soluble on expression in E. coli": "not soluble"}
{"sequence": "MPIVYYDGNCIYCYNYVIWLIQHDLPRNYQFATLKGEVGQQFFKQHPEAANKNSVILQKGDRIYFESQAIIKLITALPNRTKLLGVGLWLVPKPVRNFGYRMFANNRNRMWKTTWHQPNDYEKSFFLDDNAKVKLTD", "soluble on expression in E. coli": "not soluble"}
{"sequence": "ANNRAEVDTLSPAQAAELKPMPQSWRGVLPCADCEGIETSLFLEKDGTWVMNERYLGAREEPSSFASYGTWARTADKLVLTDSKGEKSYYRAKGDALEMLDREGNPIESQFNYTLEAAQSSLPMTPMTLRGMYFYMADAATFTDCATGKRFMVANNAELERSYLAARGHSEKPVLLSVEGHFTLEGNPDTGAPTKVLAPDTAGKFYPNQDCSSLGQMASMTGGQQMGHHHHHH", "soluble on expression in E. coli": "soluble"}
{"sequence": "MSTSEKRKGMQTDMPELQAMISQRIQEQNYREVLKGVTAFPWCTDDPCVFRTAAGNLWIAVGHVNRKSEVPKFSYKNFLCAYLLGNAEDGVAAYLDLQAAAWKGVELVMFSSHADGLSALYGDGRANDRDLLYRFFGRNYVFAVGFRKKEEKEQASAGDKIFIASVDAVGFGEIDKDGKLAVINKIMSYEQFFDDEDLKPMWGALAVKLFILKCNGYRESAKDRKALDILLHDMMKLCKSMELTAGLDDQKRKHPESAGINPQMALLKNEAMVKVHNGMDEKVKSNLPLLEWAVNHLPAKLLQEFGTFVESVPQIKEPTAYDNLMSLESVLKEMDRLFKKAAEEENLSLTKNSMTDG", "soluble on expression in E. coli": "not soluble"}
{"sequence": "MAYWLMKSEPDEFSISDLQRLGKARWDGVRNYQARNFLRTMAEGDEFFFYHSSCPEPGIAGIGKIVKTAYPDPTALDPDSHYHDAKATTEKNPWSALDIGFVDIFKNVLGLGYLKQQSQLEQLPLVQKGSRLSVMPVTAEQWAAILALRLEHHHHHH", "soluble on expression in E. coli": "soluble"}
{"sequence": "MKIVIGTKIKEQRQQHEWSQQTVAERLHVSRQTISKWELGKSYPDLELLVALSKLFSVSTDELLGLSRRPVQRPWWQLLLRKRSRTDMTVKWYSGGQDRARVAVGIISDLVANLNTTNEQPLRQLLATYYQELLEQRTGSVLGVFDRMNLDISKCLRQQQIKLSPENEQLMQQLVGLNMIYYR", "soluble on expression in E. coli": "not soluble"}
{"sequence": "MAHHHHHHMAEDTITFLRTVGKLKETDRTGWVEHGIPNPESVSDHMYRVAVMCMMCPDEKLDRNKLIRMALCHDAGESIVGDISPKMGVSKEDKYNQEKAAVLHLTGLLEKESPLSRELHELWEEYEAQHTPEAQFLKDIDLLEMVAQAHAYELAHPKKDLSSFFVSGEKIKHPWARNIYETLLRTRSSEK", "soluble on expression in E. coli": "soluble"}
{"sequence": "MLERILSRENLIQALERVEKNKGSYGVDEMDVKSLRLHLHENWTSIRNEIIEGSYFPKPVRRVEIPKPNGGVRKLGIPTVMDRFLQQAIAQILTQLYDPTFSERSFGFRPHRRGHNAVRQAKQWMKEGYRWVVDIDLEKFFDKVNHDRLMRKLSSRIQDPRVLQLIRRYLQTGVMERGLVSPNTEGTPQGGPLSPLLSNIVLDELDNELEKRGLKFVRYADDCNIYVRSKRAGLRIMESVTSFIENRLKLKVNREKSAVDRPWNRKFLGFSFTRGKDPKMRVSKESVKRLKQRIRELTSRRHSMKMSDRLRRLNRYLTGWLGYYQLVDTPSILAQIDAWIRRRLRMIRWKEWKTTSARQKNLVRLGIKKAKAWQWANSRKGYWRVAHSPIMDYALNSEYWKGQGLMSLAERYQTRRWTLEHHHHHH", "soluble on expression in E. coli": "not soluble"}
{"sequence": "MKPAIKRACLLGTALFSLCASAAQAAGVLVGTWDLRGNGQLAAVYRDGANLQVVEGGSTRNYSFGNVVWSVFGATDTDGQPGAEILVKAGPDLVIVSHASTTQRKYPVGNVSWAIMRATDVDNVAGDEVILSIGNGVRTVFDRTRTQRDATFSYNGTWGLFDVADVDGAPGKELVLNMGNGVKVIDPRTSGAKDFTFSGYHALAQIADLDGQPGAEIIGRTSTGIYVISNASSRKEYSIGASAWALYGGTADTDGKPGNELIVVMQGKVRVIHHASGASSDYRIGDVNYSIDSVADMDGQPGAEILVRDANGKLFVINDRTGKVSS", "soluble on expression in E. coli": "not soluble"}
{"sequence": "MLKKNDIVEVEIVDLTHEGAGVAKVDGLVFFVENALPSEKILMRVLKVNKKIGFGKVEKYLVQSPHRNQDLDLAYLRSGIADLGHLSYPEQLKFKTKQVKDSLYKIAGIADVEVAETLGMEHPVKYRNKAQVPVRRVNGVLETGFFRKNSHNLMPLEDFFIQDPVIDQVVVALRDLLRRFDLKPYDEKEQSGLIRNLVVRRGHYSGQIMVVLVTTRPKVFRVDQLIEQVIKQFPEIVSVMQNINDQNTNAIFGKEWRTLYGQDYITDQMLGNDFQIAGPAFYQVNTEMAEKLYQTAIDFAELKKDDVIIDAYSGIGTIGLSVAKHVKEVYGVELIPEAVENSQKNASLNKITNAHYVCDTAENAMKKWLKEGIQPTVILVDPPRKGLTESFIKASAQTGADRIAYISCNVATMARDIKLYQELGYELKKVQPVDLFPQTHHVETVALLSKLDVDKHISVEIELDEMDLTSAESKATYAQIKEYVWNKFELKVSTLYIAQIKKKCGIELREHYNKSKKDKQIIPQCTPEKEEAIMDALRHFKMI", "soluble on expression in E. coli": "not soluble"}
{"sequence": "MGSDKIHHHHHHMATTIKNRYEFVLFFDVENGNPNGDPDADNMPRIDPETSFGLVSDVCIKRKIRNYVALLKENEDDYQIYVQEKAVLNNQHKKAYEHFKIKPESKKLPKDTAQAEAITQFMCKNFYDIRTFGAVMTTEVNCGQVRGPVQLGFSRSLDPIVPQEITITRMAVTNERDLEKERTMGRKHIVNYALYRAEGFISAPLADKTGFSEEDLELLWDALINMFDHDRSAARGKMSSRKLYVFKHDSKLGNAPASILFDAITVKKINGNKPVRNFSDYEISVTGNEIPQGVEVLELL", "soluble on expression in E. coli": "not soluble"}
{"sequence": "RLSEIFNSPEFAESKSKLTLALGQDITGQPVVTDLGKAPHLLVAGTTGSGKSVGVNAMILSMLFKAAPEDVRMIMIDPKMLELSIYEGIPHLLAPVVTDMKLAANALNWCVNEMEKRYRLMSFMGVRNLAGFNQKIAEAAARGEKIGNPFSLTPDDPEPLEKLPFIVVVVDEFADLMMTAGKKIEELIARLAQKARAAGIHLILATQRPSV", "soluble on expression in E. coli": "not soluble"}
